Laboratory results published in patent US20260265354A1 (JIANGSU MABWELL HEALTH PHARMACEUTICAL R AND D, published 2026).

T1: Nectin-like-5 (UniProt P15151 21-343)
T1 construct: Bought recombinant protein; also called CD155; PVR
T1 sequence (looked up): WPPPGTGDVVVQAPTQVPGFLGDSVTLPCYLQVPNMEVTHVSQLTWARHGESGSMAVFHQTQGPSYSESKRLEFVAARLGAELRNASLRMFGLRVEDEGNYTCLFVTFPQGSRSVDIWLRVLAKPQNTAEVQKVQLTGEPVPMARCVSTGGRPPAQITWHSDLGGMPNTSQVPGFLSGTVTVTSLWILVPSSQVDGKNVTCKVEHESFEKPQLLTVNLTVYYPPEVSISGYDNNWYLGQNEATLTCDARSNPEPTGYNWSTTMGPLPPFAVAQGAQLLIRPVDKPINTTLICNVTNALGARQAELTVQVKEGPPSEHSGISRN

T2: recombinant human Nectin-4 protein (human, UniProt Q96NY8 32-349)
T2 construct: Prepared in-house (Jiangsu Mabwell) by transient transfection of CHO cells; also called PVRL-4; PRR-4
T2 sequence: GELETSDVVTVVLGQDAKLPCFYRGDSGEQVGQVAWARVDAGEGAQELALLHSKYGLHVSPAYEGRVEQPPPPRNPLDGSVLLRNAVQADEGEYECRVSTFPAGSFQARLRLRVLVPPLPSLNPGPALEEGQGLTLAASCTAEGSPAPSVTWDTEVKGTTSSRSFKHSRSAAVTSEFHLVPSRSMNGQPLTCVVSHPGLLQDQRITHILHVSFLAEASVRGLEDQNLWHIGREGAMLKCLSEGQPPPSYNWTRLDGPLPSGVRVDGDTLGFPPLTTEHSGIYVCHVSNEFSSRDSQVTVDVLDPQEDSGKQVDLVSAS

T3: Nectin-2 (UniProt Q92692 32-360, limits assumed)
T3 construct: Bought recombinant protein; also called CD112; PVRL-2
T3 sequence (looked up): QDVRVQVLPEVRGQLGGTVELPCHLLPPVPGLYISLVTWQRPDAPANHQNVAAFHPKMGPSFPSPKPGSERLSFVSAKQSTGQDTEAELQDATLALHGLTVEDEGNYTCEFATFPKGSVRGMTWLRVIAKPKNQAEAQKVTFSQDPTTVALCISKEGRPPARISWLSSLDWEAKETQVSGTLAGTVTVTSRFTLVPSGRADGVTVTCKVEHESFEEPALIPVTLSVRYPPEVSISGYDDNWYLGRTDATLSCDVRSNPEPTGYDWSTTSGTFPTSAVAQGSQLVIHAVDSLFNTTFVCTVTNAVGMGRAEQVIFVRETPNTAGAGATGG

T4: Nectin-like-2 (UniProt Q9BY67 45-374, limits assumed)
T4 construct: Bought recombinant protein; also called CADM1; IgSF4
T4 sequence (looked up): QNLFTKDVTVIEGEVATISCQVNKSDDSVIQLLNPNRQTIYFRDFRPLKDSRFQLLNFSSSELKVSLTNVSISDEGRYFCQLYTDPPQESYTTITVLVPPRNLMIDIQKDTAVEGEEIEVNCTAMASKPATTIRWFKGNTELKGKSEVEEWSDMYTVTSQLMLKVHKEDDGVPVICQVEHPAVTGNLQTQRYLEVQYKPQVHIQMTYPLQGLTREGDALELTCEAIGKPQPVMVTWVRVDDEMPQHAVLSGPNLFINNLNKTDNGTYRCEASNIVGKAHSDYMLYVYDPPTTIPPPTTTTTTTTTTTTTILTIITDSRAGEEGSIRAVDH

T5: Nectin-like-3 (UniProt Q8N3J6 25-367, limits assumed)
T5 construct: Bought recombinant protein; also called CADM2; IgSF4D
T5 sequence (looked up): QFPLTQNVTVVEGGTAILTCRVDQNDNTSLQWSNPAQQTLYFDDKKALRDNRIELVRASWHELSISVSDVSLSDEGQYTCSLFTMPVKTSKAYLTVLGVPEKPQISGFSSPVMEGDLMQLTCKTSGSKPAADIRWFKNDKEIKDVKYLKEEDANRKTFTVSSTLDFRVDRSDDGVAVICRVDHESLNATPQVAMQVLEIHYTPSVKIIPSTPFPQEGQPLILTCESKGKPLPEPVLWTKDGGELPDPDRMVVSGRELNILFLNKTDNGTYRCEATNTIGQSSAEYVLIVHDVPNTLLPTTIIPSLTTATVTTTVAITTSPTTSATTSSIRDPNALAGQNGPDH


Key:
[1] = target: T1, Nectin-like-5; experiment: ELISA, coated antigen, antibody at 10 ng/ml
Procedure: (§1) Coating: Nectin-1, Nectin-2, Nectin-3, Nectin-4, Nectin-like-1, Nectin-like-2, Nectin-like-3, Nectin-like-4, and Nectin-like-5 were diluted to 5 μg/ml in coating buffer (carbonate buffer, pH 9.6) respectively. A 96-well plate was coat with 100 μl per well and incubated overnight at 2-8° C.;
(§2) Sample loading: The plate was taken out, patted dry, and washed twice with 200 μl/well of PBST, then patted dry. The Nectin-4 antibodies prepared in Example 1 (antibody MM11, antibody R012, and antibody R036) were diluted with 1% BSA/PBST to concentrations of 10 μg/ml, 1 μg/ml, 100 ng/ml, and 10 ng/ml, respectively. 1% BSA/PBST solution for dilution was set as a blank control. 100 μl per well was added to the 96-well plate, and incubated at room temperature for 2 hours;
(§3) Reaction termination and plate reading: 100 μl/well of 1 mol/L H3PO4 was added to terminate the reaction and the plated was read. The absorbances of wells in the plate at 450 nm with 650 nm as reference wavelength were read and recorded as OD_{450 nm-650 nm}.

[2] = target: T2, recombinant human Nectin-4 protein; experiment: ELISA, coated antigen, antibody at 10 ng/ml
Procedure: as §1, §2, §3

[3] = target: T3, Nectin-2; experiment: ELISA, coated antigen, antibody at 10 ng/ml
Procedure: as §1, §2, §3

[4] = target: T6, Nectin-3 (UniProt Q9NQS3 58-404, limits assumed); experiment: ELISA, coated antigen, antibody at 10 ng/ml
T6 construct: Bought recombinant protein; also called CD113; PVRL-3
Procedure: as §1, §2, §3

[5] = target: T4, Nectin-like-2; experiment: ELISA, coated antigen, antibody at 100 ng/ml
Procedure: as §1, §2, §3

[6] = target: T5, Nectin-like-3; experiment: ELISA, coated antigen, antibody at 100 ng/ml
Procedure: as §1, §2, §3

[7] = target: T1, Nectin-like-5; experiment: ELISA, coated antigen, antibody at 100 ng/ml
Procedure: as §1, §2, §3

[8] = target: T2, recombinant human Nectin-4 protein; experiment: ELISA, coated antigen, antibody at 100 ng/ml
Procedure: as §1, §2, §3

[9] = target: T3, Nectin-2; experiment: ELISA, coated antigen, antibody at 100 ng/ml
Procedure: as §1, §2, §3

[10] = target: T6, Nectin-3; experiment: ELISA, coated antigen, antibody at 100 ng/ml
Procedure: as §1, §2, §3

T6 sequence (Q9NQS3 58-404 limits assumed): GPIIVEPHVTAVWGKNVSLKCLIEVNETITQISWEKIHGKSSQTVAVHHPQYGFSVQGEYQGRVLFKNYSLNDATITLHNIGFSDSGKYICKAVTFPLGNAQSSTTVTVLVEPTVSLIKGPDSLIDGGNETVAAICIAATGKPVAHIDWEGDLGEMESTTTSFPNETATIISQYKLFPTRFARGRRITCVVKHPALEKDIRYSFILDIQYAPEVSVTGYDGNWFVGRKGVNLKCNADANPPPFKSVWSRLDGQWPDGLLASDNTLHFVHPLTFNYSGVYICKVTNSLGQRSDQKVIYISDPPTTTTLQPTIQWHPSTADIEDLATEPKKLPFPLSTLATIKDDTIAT

| Binder | OD detection value [1] [OD450 nm-650 nm] | OD detection value [2] [OD450 nm-650 nm] | OD detection value [3] [OD450 nm-650 nm] | OD detection value [4] [OD450 nm-650 nm] | OD detection value [5] [OD450 nm-650 nm] | OD detection value [6] [OD450 nm-650 nm] | OD detection value [7] [OD450 nm-650 nm] | OD detection value [8] [OD450 nm-650 nm] | OD detection value [9] [OD450 nm-650 nm] | OD detection value [10] [OD450 nm-650 nm] |
| --- | --- | --- | --- | --- | --- | --- | --- | --- | --- | --- |
| Antibody R012 (antibody, V domains shown, Rabbit monoclonal antibody from phage display; also called Nectin-4 rabbit monoclonal antibody R012; rabbit antibody R012) VH: SKSVEESGGRLVTPGTPLTLTCTVSGFSLSTYAMSWVRQAPGKGLEYIGIISGRGTTYYASWLKGRFTISKTSTTVDLKITSPTTEDTATYFCARDAGISDVYTGYFNLWGQGTLVTVSS VL: QPVLAQLPSASAALGASAKLTCTLSSAHRTYTIAWYQQQQGEAPRYLMMLKSDGSYTKGTGVPDRFSGSSSGADRYLIISSVQAADEADYYCGADDSGGYVFGGGTQLTVTG | 0.009 | 0.748 | 0.008 | 0.008 | 0.008 | 0.008 | 0.008 | 1.44 | 0.007 | 0.007 |
| Antibody R036 (antibody, V domains shown, Rabbit monoclonal antibody from phage display; also called Nectin-4 rabbit monoclonal antibody R036; rabbit antibody R036) VH: SQSVEESGGRLVTPGTPLTLTCTVSGFSLSSYAMSWVRQAPGKGLEYIGIIGGRGTTYYAIWAKGRFTISKTSTTVDLKITSPTTEDTATYFCARDAGTTYVGTTYVATGYFNLWGQGTLVTVSS VL: QPVLTQPPSASAALGASAKLTCTLSSAHKTYTIAWYQQQQGEAPRYLMILKSDGSYTRGTGVPDRFSGSSSGADRYLIISSVQADDEADYYCGADDSGGYVFGGGTQLTVTG | 0.009 | 0.73 | 0.007 | 0.007 | 0.007 | 0.007 | 0.009 | 1.48 | 0.007 | 0.007 |
| Antibody MM11 (antibody, mouse IgG1, kappa, V domains shown, Mouse monoclonal antibody from hybridoma; also called Nectin-4 mouse monoclonal antibody MM11; mouse antibody MM11) VH: DVQLQESGPGLVKPSQSLSLTCSVTGYSITSNFYWNWIRQFPGNRLEWMGYISYDGSNNYNPSLKNRISISRDTSKNQFFLKLNSVTTEDTATYYCVRADYWGQGTLVTVSA VL: DTVMTQTPLSLPVSLGDQASISCRSSQSLESSDGHAYLNWYLQKPGQSPQLLIYRVSNRFSGVLHRFSGSGSGTDFTLKISRVEAEDLGVYFCLQFTHVPFTFGSGTKLEIKR | 0.006 | 0.58 | 0.014 | 0.006 | 0.007 | 0.031 | 0.007 | 1.64 | 0.007 | 0.014 |
